Measured values: article PMC5750214

What was measured:
[1] = target: mouse aortic AT1a receptor (mouse (endogenous in aorta)) (UniProt P29754); assay: radioligand binding; saturation: [125I]-Ang II on the aortic membrane fraction of WT control mice; non-specific binding subtracted
[2] = target: mouse aortic AT1a receptor (mouse (endogenous in aorta)) (UniProt P29754); assay: radioligand binding; saturation: [125I]-Ang II on the aortic membrane fraction of WT mice with HHcy (fed Hcy); non-specific binding subtracted

mouse aortic AT1a receptor (mouse (endogenous in aorta)), sequence (P29754 whole entry): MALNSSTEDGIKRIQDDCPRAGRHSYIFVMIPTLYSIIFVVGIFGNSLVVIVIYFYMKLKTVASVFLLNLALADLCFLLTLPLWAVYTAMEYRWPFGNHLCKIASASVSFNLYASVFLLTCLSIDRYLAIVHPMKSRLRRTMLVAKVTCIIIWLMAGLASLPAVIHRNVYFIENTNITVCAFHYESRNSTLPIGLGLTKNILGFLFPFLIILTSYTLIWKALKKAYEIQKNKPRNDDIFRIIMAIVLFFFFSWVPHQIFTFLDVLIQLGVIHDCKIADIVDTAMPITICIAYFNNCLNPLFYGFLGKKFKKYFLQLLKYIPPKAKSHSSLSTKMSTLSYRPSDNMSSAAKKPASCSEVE

[125I]-Angiotensin II (peptide)
Kd [1]: 36.4 nM
Kd [2]: 43.2 nM
